In the supplement of paper PMC10724198:
± gives the standard deviation of the averaged measurements.

Legend:
[1] = system: Saccharomyces cerevisiae; test: protein stability index of tFT-peptide fusion (C-terminal peptide) (PSI (0-1 scale)); higher = more stable (slower turnover)
Description: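 MPS profiling in S. cerevisiae of the tFT-X12 degron library: putative degron peptides plus stable controls, 12 aa, fused to the C-terminus of a sfGFP-mCherry timer. Cells are FACS-sorted into 8 mCherry/sfGFP bins and deep-sequenced. PSI runs from 0 (unstable) to 1 (stable). Backgrounds are wild type, das1Δ and doa10Δ at 30 °C, and wild type, das1Δ, cdc34-1 and cdc53-1 at 37 °C; 2-3 technical replicates each.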

[2] = system: Saccharomyces cerevisiae; test: as above; details: genetic background: wild type; temperature: 30 C
[3] = genetic background: cdc34-1, temperature: 37 C
[4] = genetic background: cdc53-1, temperature: 37 C
[5] = genetic background: das1 deletion, temperature: 30 C
[6] = genetic background: das1 deletion, temperature: 37 C
[7] = genetic background: doa10 deletion, temperature: 30 C
[8] = genetic background: wild type, temperature: 30 C
[9] = genetic background: wild type, temperature: 37 C
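Note: PSI is a weighted mean of sequencing reads over stability bins, variants kept only with over 10 reads, mCherry proximal and sfGFP distal, peptide attached via GGGS linker.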

Row | Sequence | protein stability index [1, 3] | protein stability index [1, 4] | protein stability index [1, 5] | protein stability index [1, 6] | protein stability index [1, 7] | protein stability index [1, 8] | protein stability index [1, 9] | protein stability index [2]
1 | GSVCVVCWELVV | 0.4883 ± 0.0024 | 0.583 ± 0.0091 | 0.344 ± 0.029 | 0.5561 ± 0.0013 | 0.26 ± 0.0046 | 0.293 ± 0.017 | 0.4792 ± 0.0027 | 0.378 ± 0.04
2 | CMYTILRHKINN | 0.628 ± 0.047 | 0.621 ± 0.075 | 0.649 ± 0.024 | 0.763 ± 0.023 | 0.129 ± 0.036 | 0.147 ± 0.058 | 0.279 ± 0.029 | 0.296 ± 0.054
3 | FIMHRIFMALVI | 0.386 ± 0.055 | 0.415 ± 0.03 | 0.381 ± 0.042 | 0.4786 ± 0.0006 | 0.29 ± 0.017 | 0.253 ± 0.025 | 0.359 ± 0.0092 | 0.341 ± 0.14
4 | LDTTSRSRAKIS | 0.509 ± 0.031 | 0.6775 ± 0.0026 | 0.625 ± 0.022 | 0.718 ± 0.013 | 0.0782 ± 0.032 | 0.0968 ± 0.048 | 0.138 ± 0.021 | 0.164 ± 0.032
5 | IIIRVTILCEQF | 0.135 ± 0.097 | 0.176 ± 0.0098 | 0.146 ± 0.02 | 0.258 ± 0.018 | 0.113 ± 0.0089 | 0.137 ± 0.0053 | 0.212 ± 0.011 | 0.241 ± 0.0066
6 | ERRWVLVAWRFK | 0.555 ± 0.026 | 0.616 ± 0.013 | 0.442 ± 0.031 | 0.619 ± 0.032 | 0.416 ± 0.0077 | 0.442 ± 0.03 | 0.6 ± 0.017 | 0.494 ± 0.02
7 | VARLGGRIGWEG | 0.694 ± 0.022 | 0.736 ± 0.019 | 0.634 ± 0.014 | 0.763 ± 0.015 | 0.652 ± 0.026 | 0.646 ± 0.013 | 0.7208 ± 0.0018 | 0.548 ± 0.17
8 | IVSFRLDLSLAV | 0.532 ± 0.069 | 0.5949 ± 0.0024 | 0.452 ± 0.023 | 0.55891 ± 0.00017 | 0.448 ± 0.014 | 0.458 ± 0.02 | 0.5467 ± 0.0024 | 0.534 ± 0.051
9 | LIRLCVAPMVCR | 0.455 ± 0.02 | 0.48 ± 0.0056 | 0.349 ± 0.023 | 0.5145 ± 0.0016 | 0.32 ± 0.005 | 0.349 ± 0.02 | 0.485 ± 0.011 | 0.438 ± 0.015
10 | VLLVSVFVATLL | 0.124 ± 0.013 | 0.256 ± 0.0095 | 0.143 ± 0.033 | 0.334 ± 0.0086 | 0.113 ± 0.0087 | 0.135 ± 0.022 | 0.284 ± 0.0077 | 0.21 ± 0.012
11 | FLFCMIFIFRCF | 0.216 ± 0.011 | 0.196 ± 0.026 | 0.233 ± 0.031 | 0.339 ± 0.025 | 0.203 ± 0.025 | 0.165 ± 0.015 | 0.252 ± 0.022 | 0.276 ± 0.1
12 | LFTTYVFLVFFQ | 0.345 ± 0.011 | 0.474 ± 0.0096 | 0.337 ± 0.027 | 0.511 ± 0.0082 | 0.2692 ± 0.0019 | 0.29 ± 0.018 | 0.4367 ± 0.0009 | 0.372 ± 0.012
13 | GGGWCVWMVWFG | 0.482 ± 0.036 | 0.568 ± 0.0063 | 0.411 ± 0.03 | 0.595 ± 0.011 | 0.23 ± 0.006 | 0.261 ± 0.027 | 0.481 ± 0.036 | 0.401 ± 0.024
14 | WLTCSLVFNVFW | 0.429 ± 0.025 | 0.455 ± 0.007 | 0.406 ± 0.014 | 0.482 ± 0.0057 | 0.448 ± 0.032 | 0.389 ± 0.026 | 0.471 ± 0.015 | 0.438 ± 0.0061
15 | RITGCWKTYKMQ | 0.6341 ± 0.00082 | 0.721 ± 0.0019 | 0.615 ± 0.0094 | 0.758 ± 0.055 | 0.14145 ± 6.9e-05 | 0.164 ± 0.026 | 0.342 ± 0.073 | 0.308 ± 0.055
16 | VHGWRPLLFHTR | 0.648 ± 0.032 | 0.668 ± 0.0099 | 0.647 ± 0.0073 | 0.702 ± 0.031 | 0.674 ± 0.024 | 0.622 ± 0.024 | 0.6989 ± 0.0063 | 0.519 ± 0.13
17 | CSFCSGMILLLS | 0.522 ± 0.055 | 0.557 ± 0.018 | 0.433 ± 0.02 | 0.583 ± 0.0064 | 0.391 ± 0.004 | 0.323 ± 0.044 | 0.527 ± 0.028 | 0.418 ± 0.0062
18 | SLICLSVGVLLR | 0.128 ± 0.024 | 0.181 ± 0.061 | 0.189 ± 0.029 | 0.337 ± 0.071 | 0.205 ± 0.003 | 0.188 ± 0.039 | 0.258 ± 0.021 | 0.292 ± 0.0045
19 | LMVLISVMFSLG | 0.112 ± 0.0088 | 0.254 ± 0.029 | 0.149 ± 0.022 | 0.292 ± 0.012 | 0.113 ± 0.013 | 0.182 ± 0.032 | 0.231 ± 0.012 | 0.323 ± 0.022
20 | SLALLFSFLLFL | 0.504 ± 0.041 | 0.404 ± 0.028 | 0.448 ± 0.021 | 0.536 ± 0.0096 | 0.605 ± 0.056 | 0.461 ± 0.015 | 0.54 ± 0.042 | 0.438 ± 0.013
